Measured values taken from patent US12624396B2, “Methods for alleviating facioscapulohumeral dystrophy (FSHD) by an antisense nucleic acid molecule inhibiting the expression of double homeobox 4 (DUX4)” (Fred Hutchinson Cancer Center, priority 2010, dated 2026).
“Also recorded” adds a separate entry of the source.

Tests used:
[1] = tested on: DUX4-fl target genes in FSHD muscle cells; experiment: Knockdown of DUX4-fl targets in FSHD muscle cells by lentiviral DUX4-s; type: cell-based, human; settings: FSHD cultured muscle cells transduced with lenti-DUX4-s, 48 hours of differentiation; real-time RT-PCR; FIG. 21
Description: Simultaneously, cells were transduced by lentivirus carrying DUX4-s or GFP along with 8 μg/mL polybrene. Cells were washed and changed to plain differentiation media after 24 hours. Cells were harvested for RNA after 48 hours of differentiation.
One microgram of total RNA was reverse transcribed into first strand cDNA in a 20 uL reaction using SuperScript III (Invitrogen) and digested with 1 U of RNase H (Invitrogen) for 20 min at 37° C. cDNA was diluted and used for quantitative PCR with iTaq SYBR Green supermix with ROX (Bio-Rad). The relative expression levels of target genes were normalized to those of ribosomal protein L13A (RPL13A) by 2^ΔCt. Undetermined values were equated to zero. Standard deviations from the mean of the ΔCt values were calculated from triplicates. PCR primers used for detecting the transcripts of the selected genes are listed in Supplementary methods.
Real-time RT-PCR quantitation of three DUX4 target genes, (A) PRAMEF1, (B) RFPL2 and (C) MBD3L2 in FSHD cultured muscle cells transduced with lenti-GFP or lenti-DUX4-s or untransduced. Abundance of targets was calculated relative to internal standard RPL13a and then set as percentages relative to the untransduced condition. Values represent mean+/−SEM from three independent experiments.

[2] = tested on: control human muscle cells; settings: cultured human skeletal muscle cells; Geng et al. 2011; cited from earlier work
DUX4-fl = molecular target: T1, DUX4-fl (Homo sapiens, UniProt Q9UBX2); experiment: Luciferase assay, ZSCAN4 1.9 kb enhancer/promoter reporter, co-transfection of DUX4-fl and DUX4-s; type: cell-based; settings: equal amounts of DUX4-fl and DUX4-s co-transfected in RD cells; FIG. 17C
T1 construct: expressed in transfected cells; host or cells: human rhabdomyosarcoma cell line RD, transient transfection with pCS2-DUX4-fl
Description: (§1) Transient DNA transfections of RD cells were performed using SuperFect (Qiagen) according to manufacturer specifications. Briefly, 3×10^5 cells were seeded per 35 mm plate the day prior to transfection. […] Cells were lysed 24 h post-transfection in Passive Lysis Buffer (Promega). Luciferase activities were quantified using reagents from the Dual-Luciferase Reporter Assay System (Promega) following manufacturer's instructions. Light emission was measured using BioTek Synergy2 luminometer. Luciferase data are given as the averages ±SD of at least triplicates.
To determine whether DUX4 binding might directly regulate transcription of select genes, we cloned the 1.9 kb enhancer and promoter region of the ZSCAN4 gene that includes four DUX4 binding sites as follows: (DUX4 binding sites are underlined.)
The 1.9kb enhancer and promoter region of the ZCAN4 gene that includes the four DUX4 binding sites from ZCAN4 (SEQ ID NO:100) were inserted upstream of the luciferase reporter construct (pGL3 basic luciferase vector) as shown in FIG. 17A. […] Real-time RT-PCR quantitation is reported relative to internal standard RPL13a. All data represent mean+/−SD from at least triplicates.

[3] = tested on: control human muscle cells; experiment: Expression of DUX4-s in control human muscle cells, apoptosis/toxicity; type: cell-based; settings: 48 hrs, data not shown
Excerpt: Both the mRNA analysis and the immunodetection indicate that approximately 0.1% of FSHD muscle nuclei express DUX4 mRNA and protein. This could represent transient bursts of expression or stochastic activation of expression that leads to cell death, or both. […] When DUX4 is expressed in control human muscle cells by lenti-viral delivery, the DUX4 protein is distributed relatively homogeneously during the first 24 hrs and then aggregates in nuclear foci at 48 hrs when the cells are undergoing apoptosis (data not shown). These DUX4 nuclear foci associated with apoptosis are present in the nuclei of FSHD muscle cultures.

[4] = tested on: DUX4 binding sites from TRIM48 and ZSCAN4; experiment: Luciferase assay, pGL3-promoter reporter with TRIM48 or ZSCAN4 DUX4 binding sites in RD cells; type: cell-based, human; settings: RD cells co-transfected with DUX4-s alone; FIG. 16
Description: as §1
The 31 bp DUX4 binding site from TRIM48 (SEQ ID NO:96) or ZSCAN4 (SEQ ID NO:97) were inserted into the luciferase reporter construct upstream of the SV40 promoter, as shown in FIG. 16A.
(A) reporter construct structure; Genomic fragments near the TRIM48 (B) and ZSCAN4 genes (C) containing DUX4 binding sites were cloned into pGL3-promoter reporter vector (schematic, top) and transfected into human rhabdomyoscaroma cell line RD. […] TRIM48mut and ZSCAN4mut, mutated binding sites. Luciferase activity was set relative to control.

[5] = tested on: DUX4 core binding motif oligos (CSF1R, TRIM48); experiment: Electromobility shift assay with in vitro translated protein; set-up: species or system human; settings: radiolabeled CSF1R and TRIM48 oligos, FIG. 15D
Description: EMSA was performed with ^32P-labeled 31-bp oligonucleotides from endogenous genomic sequences containing the putative DUX4 binding site as probes (sequences below; only forward shown). Radiolabeled probes were incubated with in vitro translated protein generated from pCS2-DUX4-fl or pCS2-DUX4-s^2 vectors using the TNT SP6 Coupled Wheat Germ Extract System (Promega) according to manufacturer's instructions. To obtain supershift of protein-DNA complexes, 0.1 μg of E14-3 anti-DUX4 rabbit monoclonal antibody was added to the mixtures. For competition experiments, excess unlabeled probes of either wild-type or mutant sequences were included in the binding reaction. The gels were prepared and run as previously described (Knoepfler et al., Nucleic Acids Res 27:3752-3761 (1999)).
Supershift with DUX4 antibody E14-3 confirmed the specificity of binding. […] (d) DUX4-s also binds the same core motifs; left, CSF1R; right, TRIM48. Supershift with anti-DUX4 N-terminus antibody E14-3 confirmed specificity of binding.

[6] = tested on: endogenous retroelement MaLR transcripts; experiment: MaLR expression analysis after lentiviral transduction of primary human myoblasts; type: cell-based; settings: lentiviral transduction into primary human myoblasts; real-time RT-PCR relative to RPL13a; FIG. 17E

T1 sequence (Q9UBX2 whole entry): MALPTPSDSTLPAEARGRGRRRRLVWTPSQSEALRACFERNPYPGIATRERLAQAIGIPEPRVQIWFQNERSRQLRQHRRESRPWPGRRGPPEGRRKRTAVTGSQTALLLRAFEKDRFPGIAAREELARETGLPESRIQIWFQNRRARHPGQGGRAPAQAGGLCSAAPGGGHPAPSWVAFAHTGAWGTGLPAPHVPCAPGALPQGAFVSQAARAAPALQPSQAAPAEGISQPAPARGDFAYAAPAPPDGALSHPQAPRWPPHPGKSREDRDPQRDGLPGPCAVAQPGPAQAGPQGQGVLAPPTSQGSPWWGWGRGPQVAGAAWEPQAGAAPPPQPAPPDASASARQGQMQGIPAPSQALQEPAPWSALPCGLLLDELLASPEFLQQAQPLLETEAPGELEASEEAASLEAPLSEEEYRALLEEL

B1: DUX4-s: short splice form of DUX4 (SEQ ID NO:68) keeping the N-terminal double-homeobox domains, lacking the C-terminal domain; expressed from vector (protein, listed as Homo sapiens)
chain: MALPTPSDSTLPAEARGRGRRRRLVWTPSQSEALRACFERNPYPGIATRERLAQAIGIPEPRVQIWFQNERSRQLRQHRRESRPWPGRRGPPEGRRKRTAVTGSQTALLLRAFEKDRFPGIAAREELARETGLPESRIQIWFQNRRARHPGQGGRAPAQV
[1]
  endogenous expression of DUX4-fl target genes (PRAMEF1, RFPL2, MBD3L2): inhibited the endogenous expression of the target genes; also recorded: blocks expression of DUX4-fl target genes
[2]
  toxicity of forced over-expression: not toxic
DUX4-fl
  effect on DUX4-fl induced luciferase activity: diminishes luciferase activity; also recorded: interfered with the activity of DUX4-fl
[3]
  induction of apoptosis: does not induce apoptosis
[4]
  activation of luciferase expression: did not activate expression
[5]
  binding to DUX4 core binding site (EMSA): specifically binds the same core binding site as DUX4-fl
[6]
  upregulation of endogenous MaLR transcripts: No upregulation
